Test system: MS2 coat protein
Test: apparent KD of MS2 coat protein; designed switch direction (-1 OFF switch, 1 ON switch): -1; higher = weaker reporter binding
Method in brief: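 Each step of the titration lasted 0.8–1.5 h at the lowest concentration and 10–20 min at the highest. The protein, SNAP-549-labelled MS2 coat protein, went from 0.7 or 1.5 nM doubling to 3 µM over RNA switches transcribed on Illumina chips by stalled E. coli RNA polymerase. Normalised cluster fluorescence was curve-fitted, and the per-design median over clusters is given as apparent KD.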

[1] = input ligand: microRNA oligo, concentration not stated
[2] = Eterna round: R95, input ligand: microRNA oligo, concentration not stated
[3] = Eterna round: R95, input ligand: FMN 200 uM
[4] = Eterna round: R95, input ligand: none

Row | Sequence | apparent KD of MS2 coat protein (input ligand: FMN 200 uM) [nM] | apparent KD of MS2 coat protein (input ligand: none) [nM] | apparent KD of MS2 coat protein [1] [nM] | apparent KD of MS2 coat protein [2] [nM] | apparent KD of MS2 coat protein [3] [nM] | apparent KD of MS2 coat protein [4] [nM]
1 | CCAACUCAGGAGGAUAUCUCCGCGAGUUCACGAAGAGAAGGCCUGACAUGAGGAUCACCCAUGUGUCCAUGAGG [Eternabot (Original) Solution 8] (Eterna round: R97, puzzle: Exclusion 6) | 106 | 69.6 | – | – | – | –
2 | CCAAGAUAGGAAGGAUAUUGUACAUGAGGAUCACCCAUGUAAUAAAUGAGGAUCACGGAUGUAGACAAGAAGGUCCGGAUAAGC [Ostracism 5 - Jieux - Exclusion NG 2] (Eterna round: R96, puzzle: Exclusion NG 2) | 84.1 | 45.1 | 25.1 | – | – | –
3 | CCAAGCUUAUUCAUUAACCACAUGAGGAUCACCCAUGUCUAGGCAAUUAUGACUUGCCCAUCUGGUGCUCGUCUUAU [Sensor-V1 #32] (Eterna round: R97, puzzle: Sensor, turn-off variant 1) | 32 | 32.7 | – | – | – | –
4 | CCAAGCUUGUUCAUUAACCACAUGAGGAUCACCCAUGUCUUGGCAAUUAUGACCUGCCCGUCAGGUGCUCGUCUUAU [Sensor-V1 #36] (Eterna round: R97, puzzle: Sensor, turn-off variant 1) | 45 | 48.1 | – | – | – | –
5 | CCAAGCUUUUUCCUUAACAACAUGAGGAUCACCCAUGUGUAAGCUAUUCGGUUUGGGCUCUUUAGUGCUCGUCUUAU [malcom mod] (Eterna round: R97, puzzle: Sensor, turn-off variant 1) | 19.2 | 19.7 | – | – | – | –
6 | CCACGACAUGAGGAUCACCCAUGUGAGGAUAUGGCCUGUAAGGCGUGAGCUGAAUCAAUCAGAAGGCGCGUGGG [salish99_ex1_r4_057] (Eterna round: R97, puzzle: Exclusion 1) | 92.4 | 50.6 | – | – | – | –
7 | CCACGGUGAGGAUAUCAAAGAUUGCGCUCGGAAGGUCAAUUUGAGAAGGCACAUGAGGAUCACCCAUGUUAGCG [Eternabot (L2) Solution 40] (Eterna round: R97, puzzle: Exclusion 4) | 29.8 | 34.6 | – | – | – | –
8 | CCACUGUCAGGAUAUCGUGCAUAAGCGUUUACACUUAUGUGCGAGAAGGGACAUGAGGAUCACCCAUGUAAACG [Omei Ex4 A28PK7] (Eterna round: R97, puzzle: Exclusion 4) | 628 | 391 | – | – | – | –
9 | CCAGCGCGUGUGAGGAUAUGCUGGUCCUUGGAUCAGCAGAAGGCACAUGAGGAUCACCCAUGUGAGUGCGUUGG [JL bmx4 3.35] (puzzle: Brourd's mod of Exclusion 4) | – | – | – | 16.2 | – | –
10 | CCAGGCAGUGUGAGGAUAUGCUGGUCCUUGGAUCAGCAGAAGGCACAUGAGGAUCACCCAUGUGAAUAGCUUGG [JL bmx4 3.25] (puzzle: Brourd's mod of Exclusion 4) | – | – | – | 20.5 | 105 | 21.8
11 | CCAGGCAGUGUGAGGAUAUGCUGGUGGAUACAUCAGCAGAAGGCACAUGAGGAUCACCCAUGUGAAGAGCUUGG [Mat - Exclusion 4 - JL Mod - D99] (puzzle: Brourd's mod of Exclusion 4) | – | – | – | 19 | 136 | 20.5
12 | CCAUAUAACUGAGGAUAUAAUCGCCACUGACGUUUAGAAGGCAGACAUGAGGAUCACCCAUGUGAUUUCUCAAUAUUAUACAUC [Prohibition 78 - Jieux - Exclusion NG 1] (Eterna round: R96, puzzle: Exclusion NG 1) | 1840 | 245 | 31.1 | – | – | –
13 | CCAUCGAGUGUGAGGAUAUGCUGUUCGAAAGAGCAGCAGAAGGCACAUGAGGAUCACCCAUGUGGAUACGGUGG [Mat - Exclusion 4 - JL Mod - D82] (puzzle: Brourd's mod of Exclusion 4) | – | – | – | 30.6 | – | –
14 | CCAUGGGAGCGAGGAUAUAGACCAUGGGAAGAGCUAGAAGGCGCUGACAUGAGGAUCACCCAUGUGUUCAUGAGGAGGUGGACA (Eterna round: R96, puzzle: Exclusion NG 1) | 215 | 113 | 88.7 | – | – | –
15 | CCAUGUCCAGAGGAUAUGUAGCGGAUAAACGCAACAGAAGGCUGGACAUGAGGAUCACCCAUGUGCGCCUUCCA [Letion] (Eterna round: R97, puzzle: Exclusion 6) | 35.7 | 106 | – | – | – | –
16 | CCCACAAGCUUUUUGCUCGACAUGAGGAUCACCCAUGUUGAAUGGGUUAGAUGUGUGUGAAACACACACAUCUACCU [-32.5, -55.3 kcal, A 27%] (Eterna round: R97, puzzle: Sensor, turn-off variant 1) | 20.3 | 18.6 | – | – | – | –
17 | CCCACAAGCUUUUUGCUCGACAUGAGGAUCACCCAUGUUGAAUGGGUUAUGUGUGUGUGAUACAUAUAUAUGGUCCU [-25.6, -50.5 kcal, A 23%] (Eterna round: R97, puzzle: Sensor, turn-off variant 1) | 201 | 207 | – | – | – | –
18 | CCCAGAUAGGAAGGAUAUUGUACAUGAGGAUCACCCAUGUAAUAAAUGAGGAUCACGGAUGUAGACAAGAAGGUCCGGAUAGGC [Ostracism 7 - Jieux - Exclusion NG 2] (Eterna round: R96, puzzle: Exclusion NG 2) | 108 | 50.2 | 42.5 | – | – | –
19 | CCCAGUUAGUCAGGAUAUCUUACAUGAGGAUCACCCAUGUAAUAAAUGAGGAUUUCGGGUGUCUAAGAGAAGGGACGGAUAGGC [Ostracism 27 - Jieux - Exclusion NG 2] (Eterna round: R96, puzzle: Exclusion NG 2) | 22.3 | 19.4 | 9.5 | – | – | –
20 | CCCGAGCUAGGAUAUGCACAAGGUAUCGAUCCACAACACACACAUGAGGAUCACCCAUGUAGAAGGAGCAUCGU [Eternabot (L2) Solution 27] (Eterna round: R97, puzzle: Exclusion 2) | 165 | 77.9 | – | – | – | –
21 | CCCGCAGGUUUUUUGCUCGACAUGAGGAUCACCCAUGUUGCGUGGGUUGUGUGUGUGUGGUGCAUAUAUAUGGUCCU [-25.4, -48.9 kcal, A 14%] (Eterna round: R97, puzzle: Sensor, turn-off variant 1) | 300 | 350 | – | – | – | –
22 | CCCGGGUCUGCAGGAUAUUCGAAAGCAGGUCAAAGGUCACAUGAGGAUCACCCAUGUAGUUUAACGAAGAAGGGUGUCGCCCGU [Eternabot solution 38] (Eterna round: R96, puzzle: Exclusion NG 2) | 168 | 162 | 76.7 | – | – | –
23 | CCCGUGUGAGGAUAUACUCUAAGCAUUGACAGUUGCUACAGGUAGAAGGCACAUGAGGAUCACCCAUGUCCCGG [EX4 C.13] (Eterna round: R97, puzzle: Exclusion 4) | 66 | 295 | – | – | – | –
24 | CCCGUGUUAGGAUAUACGGCACACCCACCAGCGGGUGUAUAGUAGAAGGAACAUGAGGAUCACCCAUGUAUAAC [Inardiza] (puzzle: Exclusion 4) | – | – | – | 32.4 | – | –
25 | CCCUCACAUGAGGAUCACCCAUGUAAGGAUAUCUUCGCUUUGACGUUGUUGAAUGCGAAGAGAAGGUGCACGGC [jl-ex1-4.71 ViennaUCT mod] (Eterna round: R97, puzzle: Exclusion 1) | 43 | 20.9 | – | – | – | –
26 | CCCUUUCAGGCAGGAUAUGUUCAUUUGUGAAUGGUGCCUACCUCACAUGAGGAUCACCCAUGUGGACAGAAGGGCCGGUGAAAA [Eternabot solution 26] (Eterna round: R96, puzzle: Exclusion NG 2) | 120 | 25.7 | 25.5 | – | – | –
27 | CCGAAACAUGAGGAUCACCCAUGUGAGGAUAUGAGCGUCUAGUUGAGAGAUUGGACGCUCAGAAGGCACAUUGG [JR_Ex1_Sub075] (Eterna round: R97, puzzle: Exclusion 1) | 76.7 | 121 | – | – | – | –
28 | CCGAACUCAGGAUAUGCAUGUAUAACAGAGAGAUCCACUAAACAUGAGGAUCACCCAUGUAGAAGGGAGUCGGG [Eternabot (L1) Solution 14] (Eterna round: R97, puzzle: Exclusion 2) | 887 | 365 | – | – | – | –
29 | CCGAAUAAGCAGGAUAUCGUUUCGGAAACGAAACGAGAAGGGCUAACAUGAGGAUCACCCAUGUUCCUUAACGG [Mat - Exclusion 6 - Eli Mod - D77] (puzzle: Exclusion 6) | – | – | – | 18.3 | 23.9 | 18

Source: the supplement of paper PMC9170038
